The target in assay [1] is B.1.351 variant RBD (K417N, E484K, N501Y) (SARS-CoV-2) (UniProt P0DTC2). Put plainly: BLI. (In general: In BLI a coated tip is dipped into the sample, and binding shifts an interference pattern.)
For assay [2], the target named is B.1.617.1/3 variant RBD (L452R, E484Q) (SARS-CoV-2) (UniProt P0DTC2). Put plainly: BLI.

As for “ACE2-COMP (from UniProt Q9BYF1 19-615; P35444 29-73)”, the percent of bound ACE2-COMP retained after 8 h of dissociation in assay [1] and in assay [2] was 90% throughout.
